Experimental data from patent US10829756B2, “Discovery of enzymes from the alpha-keto acid decarboxylase family” (Regents of the University of California, priority 2015, dated 2020).
“And” between values parts separate entries of the source, which are not always exact repeats. Equal values may be shown once.

B1: Native KIVD: ketoisovalerate decarboxylase used in the current synthetic recursive+1 pathway, SEQ ID NO:1 (protein, listed as Lactococcus lactis)
chain: MYTVGDYLLDRLHELGIEEIFGVPGDYNLQFLDQIISRKDMKWVGNANELNASYMADGYARTKKAAAFLTTFGVGELSAVNGLAGSYAENLPVVEIVGSPTSKVQNEGKFVHHTLADGDFKHFMKMHEPVTAARTLLTAENATVEIDRVLSALLKERKPVYINLPVDVAAAKAEKPSLPLKKENSTSNTSDQEILNKIQESLKNAKKPIVITGHEIISFGLEKTVSQFISKTKLPITTLNFGKSSVDEALPSFLGIYNGKLSEPNLKEFVESADFILMLGVKLTDSSTGAFTHHLNENKMISLNIDEGKIFNESIQNFDFESLISSLLDLSEIEYKGKYIDKKQEDFVPSNALLSQDRLWQAVENLTQSNETIVAEQGTSFFGASSIFLKPKSHFIGQPLWGSIGYTFPAALGSQIADKESRHLLFIGDGSLQLTVQELGLAIREKINPICFIINNDGYTVEREIHGPNQSYNDIPMWNYSKLPESFGATEERVVSKIVRTENEFVSVMKEAQADPNRMYWIELILAKEDAPKVLKKMGKLFAEQNKS
B2: GEO175: native enzyme from Streptomyces sp. C, predicted protein with no known function, 2-ketoacid decarboxylase, SEQ ID NO:2 (protein)
chain: MRTVRESALDVLRARGMTTVFGNPGSTELPMLKQFPDDFRYVLGLQEAVVVGMADGFALASGTTGLVNLHTGPGTGNAMGAILNARANRTPMVVTAGQQVRAMLTMEALLTNPQSTLLPQPAVKWAYEPPRAADVAPALARAVQVAETPPQGPVFVSLPMDDFDVVLGEDEDRAAQRAAARTVTHAAAPSAEVVRRLAARLSGARSAVLVAGNDVDASGAWDAVVELAERTGLPVWSAPTEGRVAFPKSHPQYRGMLPPAIAPLSRCLEGHDLVLVIGAPVFCYYPYVPGAHLPENTELVHLTRDADEAARAPVGDAVVADLALTVRALLAELPAREAAAPAARTARAESTAEVDGVLTPLAAMTAIAQGAPANTLWVNESPSNLGQFHDATRIDTPGSFLFTAGGGLGFGLAAAVGAQLGAPDRPVVCVIGDGSTHYAVQALWTAAAYKVPVTFVVLSNQRYAILQWFAQVEGAQGAPGLDIPGLDIAAVATGYGVRAHRATGFGELSKLVRESALQQDGPVLIDVPVTTELPTL
modifications: Streptomyces sp. C

Tests used:
[1] = test system: synthetic recursive+1 pathway; experiment: In vivo alcohol production of the synthetic recursive+1 pathway (fermentation, GC-FID); type: cell-based, E. coli; settings: for 1-Butanol production / 1-Ethanol production / 1-Heptanol production / 1-Hexanol production / 1-Octanol production / 1-Pentanol production / 1-Propanol production: forty hours, microaerobic, defined media
Protocol: The measured specificity and activity for each enzyme was used to select two candidates for further characterization of their ability to modulate alcohol production in vivo. The two enzymes with the highest activity and specificity (FIG. 4), KIVD_VLV and GEO 175, were tested for their ability to reprogram the synthetic recursive+1 pathway to produce long-chain alcohol products in vivo. The alcohol-producing biochemical pathway was adapted from a previous study used to synthesize alcohols of various lengths.^3,4 Starting from glucose, the aforementioned+1 pathway, involving LeuABCD, recursively elongates 2-ketoacids, starting with 2-ketobutyrate, into longer chained 2-ketoacids. These 2-ketoacids are then converted to aldehydes by ketoacid decarboxylases (native KIVD, KIVD_VLV, and GEO 175) and subsequently to alcohols by an alcohol dehydrogenase. Carbon flux through this alcohol synthesizing biochemical pathway is enhanced by overexpressing thrABC, ilvA, LeuABCD, and ADH6 on inducible plasmids transformed into E. coli.^3 The effects of overexpression were furthermore supported and maintained by knocking out the threonine exporter enzyme RhtA and the primary DNA recombination degradation enzyme RecA. The enzyme AdhE was also knocked out, which helps raise long chain alcohol production by eliminating a competing pathway where acetyl-CoA is directly converted to ethanol.^19
Genes were removed from the ATCC 98082 ΔrhtA strain genome using P1 transduction from the Keio collection as previously.^32 The aldehyde-alcohol dehydrogenase gene (adhE) was knocked out to eliminate ethanol production from acetyl-coA. In all strains, recA was knocked out to prevent recombination between the genome and plasmids, thereby stabilizing the transformants. Primers used to target recA for knockout were designed based on the Keio collection (Genobase, ecoli.aist-nara.ac.jp) and ordered from Integrated DNA Technologies.
For n-alcohol production, strains of ST128 were transformed with pZS_thrO, pZAlac_ilvABSleuA, and pZE_LeuA*BCDK*A6 containing various kivd mutations. Fermentation conditions were adapted from those in previous works,^3,4 with the following changes: 20 mL of medium was used, with 100 μg/mL ampicillin, […] kanamycin, and 100 μg/mL spectinomycin added. Cells were grown to an optical density at 600 nm of ˜0.6, followed by induction with 0.1 mM isopropyl-b-D-thiogalactoside (IPTG). After fermentation, cells were centrifuged for 15 minutes at 4000×g and 4° C. The supernatant was split into two fractions for analysis, 5 mL for short chain alcohols (ethanol, 1-propanol, and 1-butanol), and 15 mL for long chain alcohols (1-pentanol, 1-hexanol, 1-heptanol, and 1-octanol). Long chain alcohols were extracted from the 15 mL fraction by 3 mL n-hexane prior to analysis. GC-FID analysis was performed as previously described.^4

[2] = In vitro steady-state kinetics of purified 2-ketoacid decarboxylases (ADH/NADH-coupled), C8 substrate; type: biochemical; settings: kcat/KM on C8
Protocol: For the native KIVD and KIVD_VLV mutant, 2 ml overnight cultures of XL1B cells were transformed with pQE9 containing N-terminal his-tagged KIVD enzymes and grown in Terrific Broth (BP biomedical, Cat#3046-042) with 50 μg/mL of carbenicillin. (Fisher scientific, Cat# BP2648-5) For the GEOs, 2 ml overnight cultures of BLR cells were transformed with pet29b+ plasmid containing N-terminal his-tagged GEOs, and grown in Terrific Broth with 50 μg/mL of kanamycin. (Fisher scientific, Cat# BP906-5) These cultures were diluted 1:1000 in 500 mL of Terrific Broth with 1 mM MgSO4, 1% glucose, and 50ug/mL of corresponding antibiotics, then grown at 37° C. for 24 hours. […] Protein concentrations were determined using a Synergy H1 spectrophotometer (Biotek) by measuring absorbance at 280 nm using their calculated extinction coefficients with ExPASy ProtParam Tool.^33 All other buffers and salts were purchased from Fisher Scientific unless otherwise specified.
The kcat and KM values of selective KIVD mutants were measured for the substrates: C3, C5, isoC5, and C8. […] Activity was measured at 0.005 mM to 10 mM substrates. […] Absorbance readings were taken every 1-minute at OD340 at 21° C. for 60 minutes using the Synergy H1. Kinetic parameters (kcat and KM) were determined by fitting initial velocity versus substrate concentration data to the Michaelis-Menten equation.

Molecule	1-Butanol production [1] [mg/L]	1-Ethanol production [1]	1-Heptanol production [1] [mg/L]	1-Hexanol production [1] [mg/L]	1-Octanol production [1]	1-Pentanol production [1] [mg/L]	1-Propanol production [1]	also measured
B1	1964 ± 24	652 ± 32 mg/L	20 ± 3	75 ± 6	not observed	594 ± 20	693 ± 4 mg/L	overall alcohol production [1]: 4.0 g/L; short alcohols (C2-C4) share of total alcohol production [1]: 82%
B2	19	no ethanol or propanol production is observed	274	160	10 mg/L	88	no ethanol or propanol production is observed	drop of overall alcohol production from that obtained with KIVD [1]: ~10 fold; heptanol share of alcohol production [1]: 50%; hexanol share of alcohol production [1]: 29%; major alcohol product [1]: heptanol (C7) and 1-heptanol; pentanol share of alcohol production [1]: 16%; 1-Butanol production ([1]; listed as GEO 175): 19 ± 2 mg/L; 1-Heptanol production ([1]; listed as GEO 175): 274 ± 19 mg/L; 1-Hexanol production ([1]; listed as GEO 175): 160 ± 18 mg/L; 1-Octanol production ([1]; listed as GEO 175): 10 ± 1 mg/L; 1-Pentanol production ([1]; listed as GEO 175): 88 ± 12 mg/L; long chain (≥C5) alcohols produced ([1]; sum of long chain alcohols): 522 mg/L; catalytic efficiency on C8 lower than native KIVD [2]: 2 fold
